Data published in patent publication US20230140397A1 (JIANGSU HENGRUI PHARMACEUTICALS, published 2023).
One block for each binder: values may come before it.

How the values were obtained:
[1] = biological target: T1, prostate specific membrane antigen (PSMA) on prostate cancer cells (human, UniProt Q04609 1-750); assay: cell-based or functional assay
[2] = biological target: T1, prostate specific membrane antigen …; assay: flow cytometry on 22Rv1 cells, FITC anti-human IgG secondary
Description: (§1) In this experiment, fluorescence signals of antibodies on the cell surface were detected, and the binding of the antibodies was evaluated according to the intensity of the fluorescence signals.
(§2) The cells were incubated with an FITC-labeled goat anti-human IgG (H+L) secondary antibody (Jackson Immuno Research, 109-095-003) at 4° C. for 30 min, and then excess antibodies were washed off. The fluorescence signals on the cell surface were read using BD CantoII. The results are shown in Table 2, FIG. 1A, FIG. 1B, FIG. 1C, FIG. 1D, and FIG. 1E.

[3] = biological target: T1, prostate specific membrane antigen …; assay: flow cytometry on LNCaP cells, FITC anti-human IgG secondary
Description: as §1, §2

[4] = biological target: T1, prostate specific membrane antigen …; assay: flow cytometry on MDA PCa 2b cells, FITC anti-human IgG secondary
Description: as §1, §2

[5] = biological target: T1, prostate specific membrane antigen …; assay: flow cytometry on MDA PCa 2b cells (PSMA-expressing), FITC anti-human IgG detection

T1 sequence (Q04609 whole entry): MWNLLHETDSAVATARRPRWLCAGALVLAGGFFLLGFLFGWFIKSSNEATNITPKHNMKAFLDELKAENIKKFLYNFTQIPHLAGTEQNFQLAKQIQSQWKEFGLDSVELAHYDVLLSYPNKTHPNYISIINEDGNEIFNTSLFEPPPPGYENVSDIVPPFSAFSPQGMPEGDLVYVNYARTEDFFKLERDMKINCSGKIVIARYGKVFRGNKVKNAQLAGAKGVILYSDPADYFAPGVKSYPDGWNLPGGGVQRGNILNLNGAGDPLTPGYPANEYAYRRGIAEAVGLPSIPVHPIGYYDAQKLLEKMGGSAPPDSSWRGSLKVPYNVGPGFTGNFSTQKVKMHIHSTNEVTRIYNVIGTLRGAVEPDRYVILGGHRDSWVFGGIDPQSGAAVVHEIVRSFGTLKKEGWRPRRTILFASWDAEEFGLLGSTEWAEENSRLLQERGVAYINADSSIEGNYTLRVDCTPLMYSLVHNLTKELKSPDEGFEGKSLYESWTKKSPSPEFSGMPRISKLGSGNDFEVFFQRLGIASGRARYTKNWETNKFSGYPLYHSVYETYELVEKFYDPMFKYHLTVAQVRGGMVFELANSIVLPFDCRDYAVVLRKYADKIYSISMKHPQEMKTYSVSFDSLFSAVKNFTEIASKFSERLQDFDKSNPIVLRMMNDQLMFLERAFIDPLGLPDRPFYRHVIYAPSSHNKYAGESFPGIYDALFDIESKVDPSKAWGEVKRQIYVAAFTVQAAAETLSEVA

EC50 [2]: 676 pM | EC50 [3]: 1420 pM | EC50 [4]: 1080 pM
B1: Antibody PM (intact full-length anti-PSMA antibody PM, variable regions of AB-PG1-XG1-006) (antibody, V domains shown)
VH: QVQLVESGGGVVQPGRSLRLSCAASGFAFSRYGMHWVRQAPGKGLEWVAVIWYDGSNKYYADSVKGRFTISRDNSKNTQYLQMNSLRAEDTAVYYCARGGDFLYYYYYGMDVWGQGTTVTVSS
VL: DIQMTQSPSSLSASVGDRVTITCRASQGISNYLAWYQQKTGKVPKFLIYEASTLQSGVPSRFSGGGSGTDFTLTISSLQPEDVATYYCQNYNSAPFTFGPGTKVDIKR
notes: Full-length IgG1/kappa (VH-CH1-Fc/VK-CL), expressed in HEK293E cells; also called AB-PG1-XG1-006 (variable regions)
Endocytic activity of different cells to the antibodies (IC50, nM); DT3C-mediated cell killing, 22RV1 cells [1]: 0.0856 nM

EC50 [2]: 689 pM | EC50 [3]: 1580 pM | EC50 [4]: 954 pM
B2: ADC-10 (exemplary product of the conjugate of formula PM-VcMMAE, n=3.92) (antibody, V domains shown)
VH: B1 VH
VL: B1 VL
modifications: VcMMAE coupled via a mercapto group on cysteine after TCEP reduction; positions not given; mean n=3.92 per antibody (CE-SDS); VcMMAE (CAS 646502-53-6) coupled via a mercapto group on cysteine after TCEP reduction; positions not given; mean n=3.92 per antibody (CE-SDS)
notes: also called positive ADC-10

EC50 [2]: 571 pM | EC50 [3]: 938 pM | EC50 [4]: 718 pM
B3: ADC-2 (exemplary product of the conjugate of formula PM-9-A, n=6.63) (antibody, V domains shown)
VH: B1 VH
VL: B1 VL
modifications: drug-linker compound 9-A coupled via a mercapto group on cysteine after TCEP reduction; positions not given; mean n=6.63 per antibody (UV-Vis); drug-linker compound 9-A (exatecan analog with linking unit) coupled via a mercapto group on cysteine after TCEP reduction; positions not given; mean n=6.63 per antibody (UV-Vis)
notes: also called PSMA ADC

binding result [5]: no binding
B4: Lmab-9-A (control antibody-drug conjugate of labeuzumab with compound 9-A, n=7.07) (antibody, human IgG1, kappa, V domains shown)
VH: EVQLVESGGGVVQPGRSLRLSCSASGFDFTTYWMSWVRQAPGKGLEWIGEIHPDSSTINYAPSLKDRFTISRDNAKNTLFLQMDSLRPEDTGVYFCASLYFGFPWFAYWGQGTPVTVSS
VL: DIQLTQSPSSLSASVGDRVTITCKASQDVGTSVAWYQQKPGKAPKLLIYWTSTRHTGVPSRFSGSGSGTDFTFTISSLQPEDIATYYCQQYSLYRSFGQGTKVEIKR
modifications: drug-linker compound 9-A coupled to cysteine after TCEP reduction; positions not given; mean n=7.07 per antibody (UV-Vis)
notes: also called control ADC Lmab-9-A; ADCLmab-9-A
